Values of other authors, collected in article PMC4184467.

Test system: Lys64
Conditions: wild-type enzyme, zinc-bound

Carbonic anhydrase III (CA III) (Homo sapiens)
pKa: 9.0
